Reference: US20120058906A1 (published 2012)
Each block holds one binder with its values, some of them ahead of it.

Tests used:
[1] = molecular target: T1, rHuman Erythropoietin R/Fc Chimera, CF (R&D Systems Cat#963-ER) (human, UniProt P19235 25-250); assay: ECL (MSD Multi-Spot) binding assay, antigen spotted on plate; Fab 480 nM; blank spot 362
T1 construct: Bought Fc chimera; also called EPO R/Fc; Epo R; Fc part of the bought chimera not given
T1 sequence: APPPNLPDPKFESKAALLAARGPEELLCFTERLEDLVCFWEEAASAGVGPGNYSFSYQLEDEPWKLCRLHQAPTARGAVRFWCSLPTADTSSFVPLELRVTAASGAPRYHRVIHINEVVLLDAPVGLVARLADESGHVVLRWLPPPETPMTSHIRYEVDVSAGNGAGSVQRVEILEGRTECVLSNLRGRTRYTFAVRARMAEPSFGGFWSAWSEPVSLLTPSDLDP

[2] = molecular target: T2, Recombinant Human DLL4 (R&D Systems Cat#1506-D4/CF) (human, UniProt Q9NR61 27-524); assay: as above
T2 construct: Bought recombinant protein; also called delta-like protein 4; rHuman DLL4

[3] = molecular target: T3, rHuman Notch-1/Fc Chimera, CF (R&D Systems Cat#3647-TK) (human, UniProt P46531 19-526); assay: as above
T3 construct: Bought Fc chimera; Fc part of the bought chimera not given

[4] = molecular target: T4, rHuman CD44/Fc Chimera, CF (R&D Systems Cat#3660-CD) (human, UniProt P16070 21-220); assay: as above
T4 construct: Bought Fc chimera; Fc part of the bought chimera not given

[5] = molecular target: T5, rHuman P-Cadherin/Fc Chimera, CF (R&D Systems Cat#861-PC) (human, UniProt P22223 108-654); assay: as above
T5 construct: Bought Fc chimera; also called CDH3; Fc part of the bought chimera not given

[6] = molecular target: T6, rHuman IGF-1 sR, (IGF-1 sR), CF (R&D Systems Cat#391-GR) (human, UniProt P08069 31-932); assay: MSD ECL multi-spot plate; Fab 130 nM; blank spot 1153
T6 construct: also called insulin-like growth factor-1 soluble receptor; IGF-R1

[7] = molecular target: T7, rHuman Erythropoietin R/Fc Chimera, CF (R&D Systems Cat#963-ER) (human, UniProt P19235 25-250); assay: as above
T7 construct: also called EPO R/Fc; Epo R; Fc part of the bought chimera not given
T7 sequence: T1 sequence

[8] = molecular target: T8, Recombinant Human DLL4 (R&D Systems Cat#1506-D4/CF) (human, UniProt Q9NR61 27-524); assay: as above
T8 construct: also called delta-like protein 4

[9] = molecular target: T9, rHuman ErbB2/Fc Chimera, CF (R&D Systems Cat#1129-ER) (human, UniProt P04626 23-652); assay: as above
T9 construct: also called HER2/neu; human epidermal growth factor 2 receptor; Fc part of the bought chimera not given

[10] = molecular target: T10, rHuman EGF R/Fc Chimera, CF (R&D Systems Cat#344-ER) (human, UniProt P00533 25-645); assay: as above
T10 construct: also called epidermal growth factor receptor; Fc part of the bought chimera not given

[11] = molecular target: T11, rHuman HGF R/c-MET/Fc Chimera, CF (R&D Systems Cat#358-MT/CF) (human, UniProt P08581 25-932); assay: as above
T11 construct: also called HGF R/Fc; hepatocyte growth factor receptor; Fc part of the bought chimera not given

[12] = molecular target: T12, rHuman Notch-1/Fc Chimera, CF (R&D Systems Cat#3647-TK) (human, UniProt P46531 19-526); assay: as above
T12 construct: Fc part of the bought chimera not given

[13] = molecular target: T13, rHuman CD44/Fc Chimera, CF (R&D Systems Cat#3660-CD) (human, UniProt P16070 21-220); assay: as above
T13 construct: Fc part of the bought chimera not given

[14] = molecular target: T14, rHuman Notch-1/Fc Chimera, CF (R&D Systems Cat#3647-TK) (human, UniProt P46531 19-526); assay: MSD ECL titration, Fab 9.3 nM, blank 287
T14 construct: Bought Fc chimera; Fc part of the bought chimera not given

[15] = molecular target: T15, rHuman CD44/Fc Chimera, CF (R&D Systems Cat#3660-CD) (human, UniProt P16070 21-220); assay: MSD ECL titration, Fab 9.3 nM, blank 287
T15 construct: Bought Fc chimera; Fc part of the bought chimera not given

[16] = molecular target: T16, rHuman IGF-1 sR (insulin-like growth factor-1 soluble receptor), CF (R&D Systems Cat#391-GR) (human, UniProt P08069 31-932); assay: MSD ECL titration, Fab 9.3 nM, blank 287
T16 construct: Bought soluble receptor; also called IGF-R1

[17] = molecular target: T17, rHuman P-Cadherin/Fc Chimera, CF (R&D Systems Cat#861-PC) (human, UniProt P22223 108-654); assay: MSD ECL titration, Fab 9.3 nM, blank 287
T17 construct: Bought Fc chimera; Fc part of the bought chimera not given

[18] = molecular target: T18, rHuman Erythropoietin R/Fc Chimera, CF (R&D Systems Cat#963-ER) (human, UniProt P19235 25-250); assay: MSD ECL titration, Fab 9.3 nM, blank 287
T18 construct: Bought Fc chimera; also called EPO R/Fc; EPOR; Fc part of the bought chimera not given
T18 sequence: T1 sequence

[19] = molecular target: T19, Recombinant Human DLL4 (R&D Systems Cat#1506-D4/CF) (human, UniProt Q9NR61 27-524); assay: MSD ECL titration, Fab 9.3 nM, blank 287
T19 construct: Bought recombinant protein; also called rHuman DLL4; delta-like protein 4
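Further: blank spot per well as comparator with Hit at signal to blank ratio of 4 or more.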

ECL signal [1]: 621
ECL signal [2]: 1530
ECL signal [3]: 545
ECL signal [4]: 541
ECL signal [5]: 596
B1: Fab VH6-1_IGHD3-3*01_IGHJ4*01 & V4-3_IGLJ4*01 (Fab, V domains shown)
VH: QVQLQQSGPGLVKPSQTLSLTCAISGDSVSSNSAAWNWIRQSPSRGLEWLGRTYYRSKWYNDYAVSVKSRITINPDTSKNQFSLQLNSVTPEDTAVYYCAREYYDFWSGYYTDYFDYWGQGTLVTVSS
VL: QPVLTQPTSLSASPGASARLTCTLRSGINLGSYRIFWYQQKPESPPRYLLSYYSDSSKHQGSGVPSRFSGSKDASSNAGILVISGLQSEDEADYYCMIWHSSASFVFGGGTQLIIL
notes: Tested as a Fab made in E. coli; also called IGHV6-1*01

ECL signal [6]: 1970 ECL signal
ECL signal [7]: 2150 ECL signal
ECL signal [8]: 7740 ECL signal
ECL signal [9]: 1530 ECL signal
ECL signal [10]: 1750 ECL signal
ECL signal [11]: 1880 ECL signal
ECL signal [12]: 1760 ECL signal
ECL signal [13]: 1750 ECL signal
B2: Fab VH1-8_IGHD2-2*01_IGHJ6*01 & L12_IGKJ1*01 (Fab, V domains shown)
VH: QVQLVQSGAEVKKPGASVKVSCKASGYTFTSYDINWVRQATGQGLEWMGWMNPNSGNTGYAQKFQGRVTMTRNTSISTAYMELSSLRSEDTAVYYCARGGYCSSTSCYADYYYYYGMDVWGQGTTVTVSS
VL: not shown

ECL signal [14]: 492
ECL signal [15]: 396
ECL signal [16]: 315
ECL signal [17]: 452
ECL signal [18]: 306
ECL signal [19]: 13200
B3: Fab VH1-46_IGHD6-6*01_IGHJ1*01 & L6_IGKJ1*01 (Fab, V domains shown)
VH: QVQLVQSGAEVKKPGASVKVSCKASGYTFTSYYMHWVRQAPGQGLEWMGIINPSGGSTSYAQKFQGRVTMTRDTSTSTVYMELSSLRSEDTAVYYCAREEYSSSSAEYFQHWGQGTLVTVSS
VL: not shown
notes: Expressed in E. coli as Fab: heavy chain with CH1 plus Flag and His tags from Plasmid A, kappa light chain constant region from Plasmid C; also called Fab No. 1
